Results published in patent US20120172293A1 (Takeda / Millennium, published 2012).
Values belong to the binder of their own block, whether it stands above or below them. Non-standard residues stand in square brackets, D forms with d. No end group written: not given here. Phe(4-Me) = Cc1ccc(C[C@H](N)C(=O)O)cc1; 1Nal = N[C@@H](Cc1cccc2ccccc12)C(=O)O; 2Nal = N[C@@H](Cc1ccc2ccccc2c1)C(=O)O; Cha = N[C@@H](CC1CCCCC1)C(=O)O; Cit = NC(=O)NCCC[C@H](N)C(=O)O; 4Amb = NCc1ccc(C(=O)O)cc1; hSer = N[C@@H](CCO)C(=O)O; Iva = CC[C@](C)(N)C(=O)O; Ac3c = NC1(C(=O)O)CC1; Aib = CC(C)(N)C(=O)O

Key:
[1] = biological target: T1, human Y2 receptor (human, UniProt P49146 1-381); experiment: cell-based or functional assay
T1 sequence (looked up): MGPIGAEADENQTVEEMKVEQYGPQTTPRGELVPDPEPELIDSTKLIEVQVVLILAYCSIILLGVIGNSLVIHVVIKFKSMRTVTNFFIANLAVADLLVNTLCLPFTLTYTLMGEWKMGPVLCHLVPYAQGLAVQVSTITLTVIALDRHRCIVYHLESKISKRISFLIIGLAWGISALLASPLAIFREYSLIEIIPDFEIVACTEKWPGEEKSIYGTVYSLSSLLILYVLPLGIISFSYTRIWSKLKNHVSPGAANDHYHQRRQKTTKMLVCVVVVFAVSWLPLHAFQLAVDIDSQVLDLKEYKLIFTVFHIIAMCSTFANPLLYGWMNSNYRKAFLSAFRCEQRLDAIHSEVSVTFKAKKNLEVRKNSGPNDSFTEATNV

[2] = biological target: T1, human Y2 receptor; experiment: RBA: [125I]-PYY displacement, hY2R/CHO membranes
Summary of the method: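 Bound radioligand was collected by filtration on PEI-treated GF/C filters, washed with Tris/MgCl₂/NaCl/CHAPS buffer pH 7.4, and counted by scintillation; IC₅₀ values were calculated.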

B1: Ac-[D-Pro24, Cha27,28, Aib31]-PYY(23-36) (peptide)
peptide: Ac-S[dP]RH[Cha][Cha]NL[Aib]TRQRY-NH2
SMILES: CC(=O)N[C@@H](CO)C(=O)N1CCC[C@@H]1C(=O)N[C@@H](CCCNC(=N)N)C(=O)N[C@@H](Cc1c[nH]cn1)C(=O)N[C@@H](CC1CCCCC1)C(=O)N[C@@H](CC1CCCCC1)C(=O)N[C@@H](CC(N)=O)C(=O)N[C@@H](CC(C)C)C(=O)NC(C)(C)C(=O)N[C@H](C(=O)N[C@@H](CCCNC(=N)N)C(=O)N[C@@H](CCC(N)=O)C(=O)N[C@@H](CCCNC(=N)N)C(=O)N[C@@H](Cc1ccc(O)cc1)C(N)=O)[C@@H](C)O
notes: also called compound No. 142
GBA EC50 Ratio (vs PYY(3-36)), [35S]GTPγS [1]: 1.1 ratio
IC50 Ratio (vs PYY(3-36)) [2]: 3.2 ratio

B6: 4-Aminomethylbenzoyl-[Ala26, Ile28,31, Nal(1)36]-PYY(25-36) (peptide)
peptide: [4Amb]RAYINLITRQR[1Nal]-NH2
modifications: N-terminus assumed
SMILES: CC[C@H](C)[C@H](NC(=O)[C@H](Cc1ccc(O)cc1)NC(=O)[C@H](C)NC(=O)[C@H](CCCNC(=N)N)NC(=O)c1ccc(CN)cc1)C(=O)N[C@@H](CC(N)=O)C(=O)N[C@@H](CC(C)C)C(=O)N[C@H](C(=O)N[C@H](C(=O)N[C@@H](CCCNC(=N)N)C(=O)N[C@@H](CCC(N)=O)C(=O)N[C@@H](CCCNC(=N)N)C(=O)N[C@@H](Cc1cccc2ccccc12)C(N)=O)[C@@H](C)O)[C@@H](C)CC
notes: also called compound No. 13
GBA EC50 Ratio (vs PYY(3-36)), [35S]GTPγS [1]: 3.6 ratio
IC50 Ratio (vs PYY(3-36)) [2]: 7.6 ratio

B7: 4-Aminomethylbenzoyl-[Ala26, Ile28,31, Nal(2)36]-PYY(25-36) (peptide)
peptide: [4Amb]RAYINLITRQR[2Nal]-NH2
modifications: N-terminus assumed
SMILES: CC[C@H](C)[C@H](NC(=O)[C@H](Cc1ccc(O)cc1)NC(=O)[C@H](C)NC(=O)[C@H](CCCNC(=N)N)NC(=O)c1ccc(CN)cc1)C(=O)N[C@@H](CC(N)=O)C(=O)N[C@@H](CC(C)C)C(=O)N[C@H](C(=O)N[C@H](C(=O)N[C@@H](CCCNC(=N)N)C(=O)N[C@@H](CCC(N)=O)C(=O)N[C@@H](CCCNC(=N)N)C(=O)N[C@@H](Cc1ccc2ccccc2c1)C(N)=O)[C@@H](C)O)[C@@H](C)CC
notes: also called compound No. 14
GBA EC50 Ratio (vs PYY(3-36)), [35S]GTPγS [1]: 6.9 ratio
IC50 Ratio (vs PYY(3-36)) [2]: 14 ratio

B9: 4-Aminomethylbenzoyl-[Ala26, Ile28,31, Phe(4Me)36]-PYY(25-36) (peptide)
peptide: [4Amb]RAYINLITRQR[Phe(4-Me)]-NH2
modifications: N-terminus assumed
SMILES: CC[C@H](C)[C@H](NC(=O)[C@H](Cc1ccc(O)cc1)NC(=O)[C@H](C)NC(=O)[C@H](CCCNC(=N)N)NC(=O)c1ccc(CN)cc1)C(=O)N[C@@H](CC(N)=O)C(=O)N[C@@H](CC(C)C)C(=O)N[C@H](C(=O)N[C@H](C(=O)N[C@@H](CCCNC(=N)N)C(=O)N[C@@H](CCC(N)=O)C(=O)N[C@@H](CCCNC(=N)N)C(=O)N[C@@H](Cc1ccc(C)cc1)C(N)=O)[C@@H](C)O)[C@@H](C)CC
notes: also called compound No. 15
GBA EC50 Ratio (vs PYY(3-36)), [35S]GTPγS [1]: 5.5 ratio
IC50 Ratio (vs PYY(3-36)) [2]: 8.7 ratio

Now from value to binder:

GBA EC50 Ratio (vs PYY(3-36)), [35S]GTPγS [1]: 0.85 ratio
IC50 Ratio (vs PYY(3-36)) [2]: 2.9 ratio
B2: Ac-[D-Pro24, Cha27,28, Aib31, Phe36]-PYY(23-36) (peptide)
peptide: Ac-S[dP]RH[Cha][Cha]NL[Aib]TRQRF-NH2
SMILES: CC(=O)N[C@@H](CO)C(=O)N1CCC[C@@H]1C(=O)N[C@@H](CCCNC(=N)N)C(=O)N[C@@H](Cc1c[nH]cn1)C(=O)N[C@@H](CC1CCCCC1)C(=O)N[C@@H](CC1CCCCC1)C(=O)N[C@@H](CC(N)=O)C(=O)N[C@@H](CC(C)C)C(=O)NC(C)(C)C(=O)N[C@H](C(=O)N[C@@H](CCCNC(=N)N)C(=O)N[C@@H](CCC(N)=O)C(=O)N[C@@H](CCCNC(=N)N)C(=O)N[C@@H](Cc1ccccc1)C(N)=O)[C@@H](C)O
notes: also called compound No. 143

GBA EC50 Ratio (vs PYY(3-36)), [35S]GTPγS [1]: 4.5 ratio
IC50 Ratio (vs PYY(3-36)) [2]: 22 ratio
B3: Ac-[D-Pro24, Cha27,36, Hse28, Aib31]-PYY(23-36) (peptide)
peptide: Ac-S[dP]RH[Cha][hSer]NL[Aib]TRQR[Cha]-NH2
SMILES: CC(=O)N[C@@H](CO)C(=O)N1CCC[C@@H]1C(=O)N[C@@H](CCCNC(=N)N)C(=O)N[C@@H](Cc1c[nH]cn1)C(=O)N[C@@H](CC1CCCCC1)C(=O)N[C@@H](CCO)C(=O)N[C@@H](CC(N)=O)C(=O)N[C@@H](CC(C)C)C(=O)NC(C)(C)C(=O)N[C@H](C(=O)N[C@@H](CCCNC(=N)N)C(=O)N[C@@H](CCC(N)=O)C(=O)N[C@@H](CCCNC(=N)N)C(=O)N[C@@H](CC1CCCCC1)C(N)=O)[C@@H](C)O
notes: also called compound No. 144

GBA EC50 Ratio (vs PYY(3-36)), [35S]GTPγS [1]: 17 ratio
IC50 Ratio (vs PYY(3-36)) [2]: 160 ratio
B4: Ac-[D-Pro24, Cha27,36, Acpc28, Aib31]-PYY(23-36) (peptide)
peptide: Ac-S[dP]RH[Cha][Ac3c]NL[Aib]TRQR[Cha]-NH2
SMILES: CC(=O)N[C@@H](CO)C(=O)N1CCC[C@@H]1C(=O)N[C@@H](CCCNC(=N)N)C(=O)N[C@@H](Cc1c[nH]cn1)C(=O)N[C@@H](CC1CCCCC1)C(=O)NC1(C(=O)N[C@@H](CC(N)=O)C(=O)N[C@@H](CC(C)C)C(=O)NC(C)(C)C(=O)N[C@H](C(=O)N[C@@H](CCCNC(=N)N)C(=O)N[C@@H](CCC(N)=O)C(=O)N[C@@H](CCCNC(=N)N)C(=O)N[C@@H](CC2CCCCC2)C(N)=O)[C@@H](C)O)CC1
notes: also called compound No. 145

GBA EC50 Ratio (vs PYY(3-36)), [35S]GTPγS [1]: 5.6 ratio
IC50 Ratio (vs PYY(3-36)) [2]: 36 ratio
B5: Ac-[D-Pro24, Cit27, Cha28,36, Aib31]-PYY(23-36) (peptide)
peptide: Ac-S[dP]RH[Cit][Cha]NL[Aib]TRQR[Cha]-NH2
SMILES: CC(=O)N[C@@H](CO)C(=O)N1CCC[C@@H]1C(=O)N[C@@H](CCCNC(=N)N)C(=O)N[C@@H](Cc1c[nH]cn1)C(=O)N[C@@H](CCCNC(N)=O)C(=O)N[C@@H](CC1CCCCC1)C(=O)N[C@@H](CC(N)=O)C(=O)N[C@@H](CC(C)C)C(=O)NC(C)(C)C(=O)N[C@H](C(=O)N[C@@H](CCCNC(=N)N)C(=O)N[C@@H](CCC(N)=O)C(=O)N[C@@H](CCCNC(=N)N)C(=O)N[C@@H](CC1CCCCC1)C(N)=O)[C@@H](C)O
notes: also called compound No. 146

GBA EC50 Ratio (vs PYY(3-36)), [35S]GTPγS [1]: 0.66 ratio
IC50 Ratio (vs PYY(3-36)) [2]: 0.44 ratio
B8: Ac-[Arg20, D-Tyr21, D-Pro24, Cha27,28,36, Aib31]-PYY(20-36) (peptide)
peptide: Ac-R[dY]AS[dP]RH[Cha][Cha]NL[Aib]TRQR[Cha]-NH2
SMILES: CC(=O)N[C@@H](CCCNC(=N)N)C(=O)N[C@H](Cc1ccc(O)cc1)C(=O)N[C@@H](C)C(=O)N[C@@H](CO)C(=O)N1CCC[C@@H]1C(=O)N[C@@H](CCCNC(=N)N)C(=O)N[C@@H](Cc1c[nH]cn1)C(=O)N[C@@H](CC1CCCCC1)C(=O)N[C@@H](CC1CCCCC1)C(=O)N[C@@H](CC(N)=O)C(=O)N[C@@H](CC(C)C)C(=O)NC(C)(C)C(=O)N[C@H](C(=O)N[C@@H](CCCNC(=N)N)C(=O)N[C@@H](CCC(N)=O)C(=O)N[C@@H](CCCNC(=N)N)C(=O)N[C@@H](CC1CCCCC1)C(N)=O)[C@@H](C)O
notes: also called compound No. 164

GBA EC50 Ratio (vs PYY(3-36)), [35S]GTPγS [1]: 2.6 ratio
IC50 Ratio (vs PYY(3-36)) [2]: 6.4 ratio
B10: Ac-[D-Pro24, Iva27, Cha28,36, Aib31]-PYY(23-36) (peptide)
peptide: Ac-S[dP]RH[Iva][Cha]NL[Aib]TRQR[Cha]-NH2
SMILES: CC[C@](C)(NC(=O)[C@H](Cc1c[nH]cn1)NC(=O)[C@H](CCCNC(=N)N)NC(=O)[C@H]1CCCN1C(=O)[C@H](CO)NC(C)=O)C(=O)N[C@@H](CC1CCCCC1)C(=O)N[C@@H](CC(N)=O)C(=O)N[C@@H](CC(C)C)C(=O)NC(C)(C)C(=O)N[C@H](C(=O)N[C@@H](CCCNC(=N)N)C(=O)N[C@@H](CCC(N)=O)C(=O)N[C@@H](CCCNC(=N)N)C(=O)N[C@@H](CC1CCCCC1)C(N)=O)[C@@H](C)O
notes: also called compound No. 175
